# Experimental data: patent US20100240066A1 (MCGILL UNIVERSITY, published 2010)
# Where no end group is shown, it is not given here.
# T1: E-cadherin/Fc chimeric protein (human, UniProt P12830 155-707)
# T1 construct: range 155-707; Bought from R&D Systems; also called E-cad/Fc; human E-cadherin/Fc chimeric protein; not shown: Fc region of human IgG1
# T1 sequence (looked up): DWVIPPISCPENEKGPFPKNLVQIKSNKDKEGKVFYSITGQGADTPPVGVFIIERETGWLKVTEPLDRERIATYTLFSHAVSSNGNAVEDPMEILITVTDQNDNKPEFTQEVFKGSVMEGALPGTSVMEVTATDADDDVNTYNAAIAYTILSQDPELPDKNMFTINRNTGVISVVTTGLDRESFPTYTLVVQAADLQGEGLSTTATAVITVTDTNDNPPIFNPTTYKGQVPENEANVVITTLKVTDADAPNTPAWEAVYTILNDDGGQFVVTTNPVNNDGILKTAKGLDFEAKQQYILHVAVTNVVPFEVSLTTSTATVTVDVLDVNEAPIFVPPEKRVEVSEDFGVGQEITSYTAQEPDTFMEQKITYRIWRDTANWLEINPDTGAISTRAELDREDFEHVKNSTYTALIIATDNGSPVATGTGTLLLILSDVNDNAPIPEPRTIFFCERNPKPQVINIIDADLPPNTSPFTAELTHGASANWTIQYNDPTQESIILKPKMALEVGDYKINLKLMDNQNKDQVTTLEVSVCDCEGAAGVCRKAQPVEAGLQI
# T2: VE-cadherin/Fc chimeric protein (UniProt P33151 48-593)
# T2 construct: Bought from R&D Systems; also called vascular endothelial (VE)-cadherin/Fc chimeric protein; not shown: Fc part not described
# T2 sequence (looked up): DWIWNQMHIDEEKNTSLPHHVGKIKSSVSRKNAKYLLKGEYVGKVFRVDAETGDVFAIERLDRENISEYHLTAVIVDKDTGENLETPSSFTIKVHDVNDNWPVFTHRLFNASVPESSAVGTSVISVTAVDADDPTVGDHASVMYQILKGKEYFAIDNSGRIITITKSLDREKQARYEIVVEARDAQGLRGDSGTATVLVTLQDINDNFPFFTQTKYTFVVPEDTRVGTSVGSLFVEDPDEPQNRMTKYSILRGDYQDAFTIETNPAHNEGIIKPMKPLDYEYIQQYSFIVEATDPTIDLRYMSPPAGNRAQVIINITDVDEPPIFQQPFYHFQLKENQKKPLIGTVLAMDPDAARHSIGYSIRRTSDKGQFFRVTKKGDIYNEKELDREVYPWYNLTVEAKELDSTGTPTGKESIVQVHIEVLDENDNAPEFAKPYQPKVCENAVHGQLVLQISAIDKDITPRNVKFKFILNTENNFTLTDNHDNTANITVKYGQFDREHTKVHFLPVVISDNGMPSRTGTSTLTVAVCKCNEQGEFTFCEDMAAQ
# T3: N-cadherin/Fc chimeric protein (human, UniProt P19022 160-724)
# T3 construct: range 160-724; Bought from R&D Systems; also called N-cad/Fc; human N-cadherin/Fc chimeric protein; not shown: Fc region of human IgG1
# T3 sequence (looked up): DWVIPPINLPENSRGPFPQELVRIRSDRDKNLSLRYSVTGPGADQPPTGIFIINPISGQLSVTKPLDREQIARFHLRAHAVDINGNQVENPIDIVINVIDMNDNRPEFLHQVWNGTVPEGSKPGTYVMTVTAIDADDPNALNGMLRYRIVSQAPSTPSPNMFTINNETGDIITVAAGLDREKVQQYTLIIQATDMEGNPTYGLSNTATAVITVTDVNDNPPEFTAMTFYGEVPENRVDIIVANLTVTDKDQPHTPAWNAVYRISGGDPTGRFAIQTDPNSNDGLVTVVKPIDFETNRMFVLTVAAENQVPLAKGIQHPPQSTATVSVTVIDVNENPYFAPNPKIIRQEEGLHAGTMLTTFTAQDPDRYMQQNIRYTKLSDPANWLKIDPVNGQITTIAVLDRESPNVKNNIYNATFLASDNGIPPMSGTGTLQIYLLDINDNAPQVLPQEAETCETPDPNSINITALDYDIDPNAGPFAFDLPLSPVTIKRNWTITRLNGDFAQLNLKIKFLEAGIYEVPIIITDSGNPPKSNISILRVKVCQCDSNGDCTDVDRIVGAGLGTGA
# Tests used:
# Experiment in all cases: phage ELISA
# [1] = biological target: T1, E-cadherin/Fc chimeric protein
# Method: (§1) The binding of each clone to the cadherin/Fc chimeric proteins was confirmed by ELISA. Wells of ProBind microtiter plates (Falcon) were coated with either N-cadherin/Fc or E-cadherin/Fc chimeric protein (100 ng/well) or human IgG1 (which contains the Fc fragment) (100 ng/well). After blocking the nonspecific sites with TBS containing 3% BSA and 1.2 mM CaCl₂ for 1 h at 37° C., phage clones (10⁹ pfu) diluted in TBST containing 3% BSA and 1.2 mM CaCl₂ (100 μl/well). Non-coated wells were also used to exclude any phage that bound to the plastic surface. After 1 h incubation at room temperature, wells were washed 3 times with TBST containing 3% BSA and 1.2 mM CaCl₂. M13 phage without any insert were used to control the non-specific binding of the phage itself to the target. Monoclonal anti-M13 antibody conjugated to horseradish peroxidase (Amersham Biosciences, Piscataway, N.J.) was diluted in TBST containing 3% BSA and 1.2 mM CaCl₂ (1:2,000) and added to each well (100 μl/well). After 1 h incubation at room temperature, wells were washed three times with TBST containing 3% BSA and 1.2 mM CaCl₂ and once with TBS containing 1.2 mM CaCl₂. Horseradish peroxidase substrate, TMB (Sigma), was added to each well (100 μl/well and after color development the reaction was stopped by addition of 100 μl 0.5 M sulphuric acid to each well. The intensity of the color was measured at 450 nm.
# (§2) The phage clones shown to bind to the N-cadherin/Fc chimeric protein by ELISA were also evaluated for their ability to bind to E-cadherin/Fc and VE-cadherin/Fc chimeric proteins. The phage clones shown to bind to the E-cadherin/Fc chimeric protein by ELISA were also evaluated for their ability to bind to N-cadherin/Fc and VE-cadherin/Fc chimeric proteins. The same ELISA protocol described in the previous section was used to perform this evaluation with the exception that the wells were coated with either 100 ng N-cadherin/Fc, E-cadherin/Fc or VE-cadherin/Fc chimeric protein (R&D Systems, Minneapolis, Minn.).
# [2] = biological target: T2, VE-cadherin/Fc chimeric protein
# Method: as §1, §2
# [3] = biological target: T3, N-cadherin/Fc chimeric protein
# Method: as §1, §2
Binder,binding result [1],binding result [2],binding result [3]
QWTITYPKPPAL (whole phage in the assay; also called QWTITYPKPPAL) [phage clone Ec 12-13],binds,no binding (tested: 10^9 pfu),binds
EWTWVFPTTHTS (whole phage in the assay) [phage clone Ec 12-07],binds,no binding (tested: 10^9 pfu),binds
EWDFFWPPTQTP (whole phage in the assay) [phage clone Ec 12-19],binds,no binding (tested: 10^9 pfu),binds
"WTFNFCTAC (not fully specified; cysteine pairing not given here; also: displayed on M13 phage pIII, whole phage in the assay) [phage clone Ec a5]",binds,no binding (tested: 10^9 pfu),binds
AWTWSLPTLPQS (whole phage in the assay) [phage clone Ec 12-a5],binds,no binding (tested: 10^9 pfu),binds
SWTWHFPESPPP (whole phage in the assay) [phage clone Ec 12-01],binds,no binding (tested: 10^9 pfu),binds
EWTYTFPTAHSI (whole phage in the assay) [phage clone Ec 12-a18],binds,no binding (tested: 10^9 pfu),binds
QWEIRYPWPSMG (whole phage in the assay) [phage clone Ec 12-a1],binds,no binding (tested: 10^9 pfu),binds
GWTVFYPDNLRP (whole phage in the assay) [phage clone Ec 12-18],binds,no binding (tested: 10^9 pfu),binds
SWTFYWPDAQLG (whole phage in the assay) [phage clone Ec 12-06],binds,no binding (tested: 10^9 pfu),binds
"WQMVLCPAC (not fully specified; cysteine pairing not given here; also: displayed on M13 phage pIII, whole phage in the assay) [phage clone Ec 4]",binds,no binding (tested: 10^9 pfu),binds
"WTMCYPDTC (not fully specified; cysteine pairing not given here; also: displayed on M13 phage pIII, whole phage in the assay) [phage clone Ec 7]",binds,no binding (tested: 10^9 pfu),binds
"WELVQCLTC (not fully specified; cysteine pairing not given here, whole phage in the assay) [phage clone Ec 1]",binds,no binding (tested: 10^9 pfu),binds
SWEWYIPYLNRT (whole phage in the assay) [phage clone Ec 12-a11],binds,no binding (tested: 10^9 pfu),binds
QWQLHWPASKQA (whole phage in the assay) [phage clone Ec 12-11],binds,no binding (tested: 10^9 pfu),binds
EWFWSWPGYSNT (whole phage in the assay) [phage clone Ec 12-a13],binds,no binding (tested: 10^9 pfu),binds
QWEWHYMAGYLA (whole phage in the assay) [phage clone Ec 12-15],binds,no binding (tested: 10^9 pfu),binds
SWELYYPLRANL (whole phage in the assay) [phage clone Ec 12-a2],binds,no binding (tested: 10^9 pfu),binds
"WQFCYAQHC (not fully specified; cysteine pairing not given here; also: displayed on M13 phage pIII, whole phage in the assay) [phage clone Ec 2]",binds,no binding (tested: 10^9 pfu),binds
EWTFQWNSYPAD (whole phage in the assay) [phage clone Ec 12-10],binds,no binding (tested: 10^9 pfu),binds
"WQWCFKATC (not fully specified; cysteine pairing not given here; also: displayed on M13 phage pIII, whole phage in the assay) [phage clone Ec 21]",binds,no binding (tested: 10^9 pfu),binds
EWQYHWPTLQSR (whole phage in the assay) [phage clone Ec 12-22],binds,no binding (tested: 10^9 pfu),binds
QWTYYLPLTPRW (whole phage in the assay) [phage clone Ec 12-a4],binds,no binding (tested: 10^9 pfu),binds
